Assay: yeast display, Sf9 membrane polyspecificity reagent, FACS + sequencing; frameworks hold sequencing errors
Summary of the method: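 Sorting gates, low and high (top ~1%), were placed on anti-HA fluorescence to track expression and on streptavidin fluorescence to track reagent binding. A clone's polyreactivity label is taken from the gate it came out of. The reagent was 10% biotinylated, detergent-solubilized Sf9 membrane, applied for 1 hour at 4 °C to galactose-induced yeast display cells.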

Row | Sequence | polyreactivity (PSR sort gate)
1 | QVQLVESGGGLVQAGGSLRLSCAASGITFQGYTMGWYRQAPGKEWELVAAISSNGGRTYYADSVKGRFTISRDNAKNTVYLQMNSLKPEDTAVYYCAARSFWTYRSGGPSDYYYWGQGTQVTVSS | high polyreactivity
2 | QVQLVESGGGLVQAGGSLRLSCAASGFTFVSNDMGWYRQAPGKERELVAAIRYRGGDTYYADSVKGRFTISRDNAKNTVYLQMNRLKPEDTAVYYCAVDVATYTAGWYYHGYDYWGQGTQVTVSS | low polyreactivity
3 | QVQLVESGGGLVQAGGSLRLSCAASGSTFYKSTMGCYRQPPGKESELVPAISGSATTTYYADSVKGRFTISRDNAKNTVYLQMNSLKPEDTAVYYCAARRFSPGSSGHGYWGQGTQVNVSS | high polyreactivity
4 | QVQLVESGGGLVQAGGSLRLSCAASGSTFTYNAMGWYRQAPGKERELVAAIRSNGGSTYYADSVKGRFTISRDNAKNTVYLQMNSLKPEDTAVYYCAARLSVLGGYRGRNAWRFDHWGLGTQVTVSS | high polyreactivity
5 | QVQLEESGGGLVQAGGSLRFSCAASGSIMTRNAMGWYRQPTGKEMELVAAITGSGGRTYYADSVKGRFSISRDNAKKTFFLQMTSLIPEDTAVYYCATRYGREDYWGQGTQVNVSS | high polyreactivity
6 | QVQLVESGGGLVQAGGSLRLSCAASGRTHIYAMGWYRQAPGKERELVAGISRSGTRTYYADSVKGRFTISRDNAKNTVYLQMNSLKPEDSAVYYCNAQAYYQGYDYWGQGTQVTVSS | high polyreactivity
7 | QVQLVESGGVLFQAGGSLRLSCAASGRISYANAIGWYRQAPGKESEMVASITYSAGSTYADSVKGRFTISRDNAKNTVYLQMISLKPEDTAVYYCAKRPCQHYRSYLMDYWGQGTQVNVSS | low polyreactivity
8 | QVQLVESGGGLVQAGGSLRLSCAASGRIFTYNAMGWSRQAPGKERELVAANTSSGGSTYYADSVKGRFTISRDYAKNTVYLQMNSLKPEDTAVYYCATVRRGRDYWGQGTQVTVSS | high polyreactivity
9 | QVQLVESGGGLVQAGGSLRLSCAASGSTFLPYAMGWYRQAPGKERELVAAIRWSVGSTYYADSVKGRFTISRDNAKNTVYLQMNSLIPEVTAGYYCYAVVYVVGDFDYWGQGSQVTVSS | high polyreactivity
10 | QVQLVESGAGLVQAGGSLRLICAATGFTLGSNAMGSYRKAPGKERELVAAISKSGGSTYYADSVKGRFTISRDNAKNTVYLQMNSLKPDDTAVYYCAARYLYQGYRYDYWGQGTQVTVSS | high polyreactivity
11 | QVQLVESGAGLVQAGGSLRFSCAASGSIFDHYVMGWYRQAPGKEREFVAAIPSGDRTNYADSVKGRFTISRDNANNTVYLQMNSLKPEDTAVYYCNADYQYYFYYTTCYYDYDYWGQGTPVTVSS | low polyreactivity
12 | QVQLVESGGGLVQAGGSLRLSCAASGRTFYRYAMGWYRQAPGKERELFAAISGSGTSTSYADSVKGRFTISRDNAKNTVYLQLNSLKPDDTAVYYCAATYYVYYYSRYYYWGQGTQVTVSS | high polyreactivity
13 | QVQLVESGGGLVQAGGSLRLSCAASGSTFSRYAMGWYRQAPGKEREMVAAINTRGGSTYYADSVKGRFTISRDNSKNTVYLQMNSLKPEDTAVYYCARRFYGFGPYYPFDYWGQGTQVTVSS | low polyreactivity
14 | QVQLVESVGGLVQAGGSLRLSCAASGLTFRKYAMGWYRQAPGKERELVAGISSGGSTYYADSVKGRFTISRDNAKNTVYLQMNSLKPEDTAVYYCAAKALRTMYYWGQGTQVTVSS | high polyreactivity
15 | QVQLVESGGGLVQAGGSLRLSCAASGFTFKWYTMGWYRPAPGKERELVAGISRRGGSTYYADSVKGRFTISRDNAKNTVYLQMNSLKPEDTAVYYCARRFLYPYDHWGQGTQVTVSS | high polyreactivity
16 | QVQLVESGGGLVQAGGSLRLSCAASGIIFKVNAMGWYRQAPGKERELVAAISRRGGITYYADSVKGRFTISRDNAKNTVYLQMNSLKPEDSAVYYCAAAYSDYRFSTRYPYNYWGQGTQVTVSS | high polyreactivity

Row | Sequence | polyreactivity (PSR sort gate)
17 | QVQLVESGGGLVHAGGSLRLSCAASGSIYYAYAMGGYRQAPGKERELVATITWNGDSTYYADSVKGRFTISLDNAKNTVYLQMNSLKPEDTAVYYCAARYRWPIPGTQYEYWGQGTQVTVSS | low polyreactivity
18 | QVQLVESGGGLVQAGGSLRLSCAASGSTFDINVMGWYRQAPGKERELVAAITWSGGRTYYADSVKGRFTISRDNAKNTVYLQMNSLKPEDTAVYYCAARVGRGVYRYVPREFDYWGQGTQVTVSS | high polyreactivity
19 | QVQLVESGGGLVQAGVSLRLSCAASGGILYWYAMGWSRQAPGKERELVAAIDWTGGSTYYADSVKGRFTISRDNAKNTVYLQMNSLKPEDTAVYYCAADSYWGSGVVPGYDYWGQGTQVTVSS | low polyreactivity
20 | QVQLVESGGGLVQAGGSLRLSCAASGNTFVTYTMGWYRQAPGKERELVADISSGGSTYYADSVKGRFTISRDNAKNTVYLQINSLKPEDTAVYYCAVQQAVFRSYYIYHRYYWGQGTQVTVSS | high polyreactivity
21 | QVQLVESGGGLVQAGGSLRLSCAASGYTFNIYAMGWYRQAPGKERELVAAITSRGGGTYYADSVKGRFTISRDNAKNTVYLQMNSLKPEDTAVYYCAADVYSYYHWYTHYDYWGQGTQVTVSS | high polyreactivity
22 | QDQLVESGGGLVQAGGSLRLSCAASGRTIYQNAMGWYRQAPGKERELVAAISRSGGSTYYADSVKGRFTISRDNAKNTVYLQMNSLKPEDTAVYYCAADPRSYGGGYDYWGQGPQVTVSS | high polyreactivity
23 | QVQLVESGGGLVQAGGSLRLSCAASGSIFRPYAMGWYRQAPGKERELVAAITWSGGRTYYADSVKGRFTISRDNAKNTVYLQMNSLKPEDTAVYYCAADDSEGFDYWGQGTQVTVSS | high polyreactivity
24 | QVQLVESGGGLVQAGGSLRLSCAASGNTFVSNARGWYSQAPGKEREWVAAIDSGGSTNYADSVKGRFTISRDNAKNTDYLQMNSLKPEDTAVYYCNRTSVYYYYWGQGTQVTVSS | low polyreactivity
25 | QVQLVESGGGLVQAGGSLRLSCAASGFIFHSYAMRWYRQAPGKERELVAAITHSGGRTYYADCVKGRFTISRDNAKNTVYLQMNSLKPEDTAVYYCAAVTRRHEYDYWGQGSQVTVSS | high polyreactivity
26 | QVQLVESGGGLVQAGGSLRLSCAASGFTFGWYDMGWYRQAPGKERELVASISWSGSSTYYADSVKGRFTISRDNAKNTVYLQLNSLKPEDTAVYYCNDVSVDYVNWYWYDYWGQGTQVTVSS | high polyreactivity
27 | QVQLVESGGGLVQAGGSLRLSCAASGRTFIGNAMGWYRQAPGKERELVAGIDSDGSTNYADSVKGRFTISRDNAKNTVYLLMNSLKPEDTAVYYCAAVQGYRFYEYYYWGQGTQVTVSW | low polyreactivity
28 | QVQLQESAGGLVQAGGSLRQSCEASGYIIPYYSMGWYRQSPGKERGLVACIAAGTTTNYADSVNGRFTISRDNEKNTVYLQMNSLNPEDAAVYFCAALNAFNTGHWYWGQGTQVTVSS | low polyreactivity
29 | QVQLVESGAGLGQAGGSLRLSCAASGYTFPSNAMGWYRQAPGKERELVAAISSGGRTNYADSVKGRFTISRDNAKNTVYLQMNSLKPEVTAVYYCNADGGPGYPRAYDYWGPGTQVTVSS | low polyreactivity
30 | QVQLVESGGGLVQAGGSLRLSCAASGSTFSYYAMGWYRQAPGKEREFVAAISYSTTSTFYADSVKGRFTISRDNAKNTVYLQMNSLKPEDTAVYYCAARARYSPATYDYWGQGTQVTVSS | high polyreactivity
31 | QVQLVESGGVLVQAGGSLRLSCAASRSIFQGYVMGWYRQAPGKERELVAAISYSGDSTYYADSVKGRFTNSRDNAKNTVSLQINSVKPEDTAVYYCNAYRNRYGYRTSSRRYGYWGQGTQVTVSS | high polyreactivity
32 | QVQLVESGGGLVQAGGSLRLSCAASGRTFKLNAMGWYRKAPGKERELVAGITRTGDSTYYADSVKGRFTISRDNAKNTVYLQMNSLKPEDTAVYYCAAAEWYSMDYWGQGTQVTVSS | low polyreactivity
